# Where a chain is given by its changes, count along the chain named.
# T1: human PAC1 receptor (human, UniProt P41586 24-468)
# T1 sequence: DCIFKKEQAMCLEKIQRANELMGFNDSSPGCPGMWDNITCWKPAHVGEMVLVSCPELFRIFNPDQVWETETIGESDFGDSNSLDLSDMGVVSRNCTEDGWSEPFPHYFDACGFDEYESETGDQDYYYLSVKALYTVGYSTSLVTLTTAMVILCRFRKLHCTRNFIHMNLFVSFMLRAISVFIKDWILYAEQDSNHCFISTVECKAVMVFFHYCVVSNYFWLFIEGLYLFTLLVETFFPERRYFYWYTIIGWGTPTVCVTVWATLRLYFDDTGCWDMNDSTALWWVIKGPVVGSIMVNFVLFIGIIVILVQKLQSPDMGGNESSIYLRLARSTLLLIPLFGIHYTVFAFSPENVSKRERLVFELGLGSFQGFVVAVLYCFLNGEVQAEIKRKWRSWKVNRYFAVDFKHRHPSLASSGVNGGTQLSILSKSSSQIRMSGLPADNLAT
# B1: iPS:454791 (bispecific antibody, human IgG1, kappa, lambda, N297G)
# light 1: QSVLTQPPSVSAAPGQKVTISCSGSYSNIGRYSVSWYQQLPGTAPKLLIYDNNKRPSGIPDRFSGSKSGTSATLGITGLQTGDEADYYCGTWDSRLSAVVFGGGTKLTVLGQPKAAPSVTLFPPSSEELQANKATLVCLISDFYPGAVTVAWKADSSPVKAGVETTTPSKQSNNKYAAKSYLSLTPEQWKSHRSYSCQVTHEGSTVEKTVAPTECS
# heavy 1: QVQLVESGGGVVQPGRSLRLSCAASGFTFSSFGMHWVRQAPGKGLEWVAVISFDGSIKYSVDSVKGRFTISRDNSKNTLFLQMNSLRAEDTAVYYCARDRLNYYESSGYYHYKYYGMAVWGQGTTVTVSSASTKGPSVFPLAPSSKSTSGGTAALGCLVKDYFPEPVTVSWNSGALTSGVHTFPAVLQSSGLYSLESVVTVPSSSLGTQTYICNVNHKPSNTKVDKKVEPKSCDKTHTCPPCPAPELLGGPSVFLFPPKPKDTLMISRTPEVTCVVVDVSHEDPEVKFNWYVDGVEVHNAKTKPCEEQYGSTYRCVSVLTVLHQDWLNGKEYKCKVSNKALPAPIEKTISKAKGQPREPQVYTLPPSRKKMTKNQVSLTCLVKGFYPSDIAVEWESNGQPENNYKTTPPVLKSDGSFFLYSKLTVDKSRWQQGNVFSCSVMHEALHNHYTQKSLSLSPGK
# light 2: EIVLTQSPATLSLSPGERATLSCRASKSVGYSLHWYQQKPGQAPRLLIKYASQSLSGIPARFSGSGSGTDFTLTISSLEPEDFAVYYCHQSSRLPFTFGPGTKVDIKRTVAAPSVFIFPPSDEQLKSGTASVVCLLNNFYPREAKVQWKVDNALQSGNSQESVTEQDSKDSTYSLESTLTLSKADYEKHKVYACEVTHQGLSSPVTKSFNRGEC
# heavy 2: not shown
# B2: iPS:454805 (bispecific antibody, human IgG1, kappa, lambda, N297G)
# light 1: B1 light 1 with Y26R, R31I, Y32K, S33A
# heavy 1: B1 heavy 1
# light 2: B1 light 2 with Y31Q
# heavy 2: not shown
# B3: iPS:454815 (bispecific antibody, human IgG1, kappa, lambda, N297G)
# light 1: B1 light 1 with Y26R, R31I, Y32K, S33A
# heavy 1: B1 heavy 1
# light 2: B1 light 2 with Y31R
# heavy 2: not shown
# B4: iPS:454817 (bispecific antibody, human IgG1, kappa, lambda, N297G)
# light 1: B1 light 1 with Y26R, R31I, Y32K, S33A
# heavy 1: B1 heavy 1
# light 2: B1 light 2 with Y31R
# heavy 2: not shown
# B5: iPS:454795 (bispecific antibody, human IgG1, kappa, lambda, N297G)
# light 1: B1 light 1 with Y26R, R31I, Y32K, S33A
# heavy 1: B1 heavy 1
# light 2: B1 light 2 with S28A, G30W, Y31H, S32N, R93M
# heavy 2: not shown
# B6: iPS:454803 (bispecific antibody, human IgG1, kappa, lambda, N297G)
# light 1: B1 light 1 with Y26R, R31I, Y32K, S33A
# heavy 1: B1 heavy 1
# light 2: B1 light 2 with Y31W
# heavy 2: not shown
# B7: iPS:454801 (bispecific antibody, human IgG1, kappa, lambda, N297G)
# light 1: B1 light 1 with Y26R, R31I, Y32K, S33A
# heavy 1: B1 heavy 1
# light 2: B1 light 2 with Y31Q
# heavy 2: not shown
# B8: iPS:454811 (bispecific antibody, human IgG1, kappa, lambda, N297G)
# light 1: B1 light 1 with Y26R, R31I, Y32K, S33A
# heavy 1: B1 heavy 1
# light 2: EIVLTQSPATLSLSPGERATLSCRASRAVSNLHWYQQKPGQAPRLLIKYASQSLSGIPARFSGSGSGTDFTLTISSLEPEDFAVYYCHQSSYLPFTFGPGTKVDIKRTVAAPSVFIFPPSDEQLKSGTASVVCLLNNFYPREAKVQWKVDNALQSGNSQESVTEQDSKDSTYSLESTLTLSKADYEKHKVYACEVTHQGLSSPVTKSFNRGEC
# heavy 2: not shown
# B9: iPS:454793 (bispecific antibody, human IgG1, kappa, lambda, N297G)
# light 1: B1 light 1 with Y26R, R31I, Y32K, S33A
# heavy 1: B1 heavy 1
# light 2: B1 light 2 with Y31Q
# heavy 2: not shown
# B10: iPS:454821 (bispecific antibody, human IgG1, kappa, lambda, N297G)
# light 1: B1 light 1 with Y26R, R31I, Y32K, S33A
# heavy 1: B1 heavy 1
# light 2: B1 light 2 with Y31R
# heavy 2: not shown
# B11: iPS:454819 (bispecific antibody, human IgG1, kappa, lambda, N297G)
# light 1: B1 light 1 with Y26R, R31I, Y32K, S33A
# heavy 1: B1 heavy 1
# light 2: B1 light 2 with Y31R
# heavy 2: not shown
# B12: iPS:454799 (bispecific antibody, human IgG1, kappa, lambda, N297G)
# light 1: B1 light 1 with Y26R, R31I, Y32K, S33A
# heavy 1: B1 heavy 1
# light 2: B1 light 2 with Y31Q
# heavy 2: not shown
# B13: iPS:454797 (bispecific antibody, human IgG1, kappa, lambda, N297G)
# light 1: B1 light 1 with Y26R, R31I, Y32K, S33A
# heavy 1: B1 heavy 1
# light 2: B1 light 2 with K27R, Y31L, S32A, R93F
# heavy 2: not shown
# B14: iPS:454809 (bispecific antibody, human IgG1, kappa, lambda, N297G)
# light 1: B1 light 1 with Y26R, R31I, Y32K, S33A
# heavy 1: B1 heavy 1
# light 2: B1 light 2 with S28A, Y31F, R93F
# heavy 2: not shown
# B15: iPS:454813 (bispecific antibody, human IgG1, kappa, lambda, N297G)
# light 1: B1 light 1 with Y26R, R31I, Y32K, S33A
# heavy 1: B1 heavy 1
# light 2: B1 light 2 with Y31R
# heavy 2: not shown
# B16: iPS:454807 (bispecific antibody, human IgG1, kappa, lambda, N297G)
# light 1: B1 light 1 with Y26R, R31I, Y32K, S33A
# heavy 1: B1 heavy 1
# light 2: B1 light 2 with Y31Q
# heavy 2: not shown
# Biological target: human CGRP receptor (human, UniProt Q16602 23-461; O60894 27-148)
# Sequence (Q16602 23-461 limits assumed, chain 1 of 2): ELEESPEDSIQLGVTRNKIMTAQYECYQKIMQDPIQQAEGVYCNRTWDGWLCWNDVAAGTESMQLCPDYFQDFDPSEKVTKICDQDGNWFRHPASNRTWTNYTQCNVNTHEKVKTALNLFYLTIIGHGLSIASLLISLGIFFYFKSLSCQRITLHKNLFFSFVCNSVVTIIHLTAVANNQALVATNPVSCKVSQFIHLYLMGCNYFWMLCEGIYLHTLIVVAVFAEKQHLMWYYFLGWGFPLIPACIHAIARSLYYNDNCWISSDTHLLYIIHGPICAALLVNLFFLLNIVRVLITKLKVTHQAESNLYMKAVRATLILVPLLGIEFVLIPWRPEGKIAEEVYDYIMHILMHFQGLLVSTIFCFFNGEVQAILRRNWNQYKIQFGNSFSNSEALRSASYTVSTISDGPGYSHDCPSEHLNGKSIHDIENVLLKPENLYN
# Sequence (O60894 27-148 limits assumed, chain 2 of 2): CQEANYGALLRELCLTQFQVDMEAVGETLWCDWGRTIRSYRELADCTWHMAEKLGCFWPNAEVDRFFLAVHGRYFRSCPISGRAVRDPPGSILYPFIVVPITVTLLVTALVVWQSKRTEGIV
# Experiment: cell-based or functional assay
Fold-improvement over 4E4 Ab,IC50,Binder
1.2 fold,0.44 nM,B1
1 fold,0.52 nM,B2
1.6 fold,0.37 nM,B3
1.7 fold,0.33 nM,B4
1.4 fold,0.37 nM,B5
1.2 fold,0.44 nM,B6
1.2 fold,0.44 nM,B7
1 fold,0.53 nM,B8
1.3 fold,0.39 nM,B9
1.5 fold,0.39 nM,B10
1.8 fold,0.33 nM,B11
1.6 fold,0.32 nM,B12
2.6 fold,0.2 nM,B13
0.8 fold,0.64 nM,B14
0.8 fold,0.61 nM,B15
0.9 fold,0.56 nM,B16

# Biological target: T1, human PAC1 receptor
# Experiment: cell-based or functional assay
Fold-improvement over 29G4v22 Ab,IC50,Binder
7.1 fold,0.79 nM,B1
6.9 fold,1.16 nM,B2
10.1 fold,0.65 nM,B3
10.7 fold,0.62 nM,B4
2 fold,3.26 nM,B5
8.7 fold,0.92 nM,B6
4.4 fold,1.82 nM,B7
2.8 fold,2.85 nM,B8
6 fold,1.09 nM,B9
9.2 fold,0.72 nM,B10
9.6 fold,0.69 nM,B11
4.1 fold,1.59 nM,B12
5.4 fold,1.21 nM,B13
4 fold,2.01 nM,B14
9.9 fold,0.81 nM,B15
5.4 fold,1.48 nM,B16

# Reference: US20220363770A1 (Amgen, published 2022)
